Source: the Human Domainome abundance scans (Beltran et al. 2025)
± gives the uncertainty stated by the source.

B1: RanBP-type and C3HC4-type zinc finger-containing protein 1, residues 369 to 411; numbered along this chain, Q9BYM8 (parent)
chain: YHCKTPDCKGWCFFEDDVNEFTCPVCFHVNCLLCKAIHEQMNC

Variants of: B1
Test: abundance fitness (aPCA) (normalised: wild type 0, dead -1); higher = more abundant; growth selection in yeast, the domain comes from the species named
Conditions: Homo sapiens

Variant | abundance fitness
YHKKTPDCKGWCFFEDDVNEFTCPVCFHVNCLLCKAIHEQMNC [C3K] | -0.771 ± 0.071
YHCKTPDCKGWCFFEDDVNEFTCPVCFHVNCLLCKAIHEQMQC [N42Q] | 0.304 ± 0.099
YHCKLPDCKGWCFFEDDVNEFTCPVCFHVNCLLCKAIHEQMNC [T5L] | -0.004 ± 0.057
YHCKTPDCKGWCFFEDDVNEFTCPVCFHVNGLLCKAIHEQMNC [C31G] | -0.655 ± 0.041
YHCKTPDCKGWCFFEDDVNEFTCPVCFHVNRLLCKAIHEQMNC [C31R] | -0.558 ± 0.04
YHCKTPDCKGWCFFEDDVNEFTCPVCFHVNVLLCKAIHEQMNC [C31V] | -0.76 ± 0.064
YHCKTPDCKGWCFFEDDVNEFTCPVCFHVNQLLCKAIHEQMNC [C31Q] | -0.521 ± 0.077
YHCKTPDCKGWCFFEDDVNEFTCPVTFHVNCLLCKAIHEQMNC [C26T] | -0.921 ± 0.13
YHCKTPDCKGWCFFEDDVNEFTCPVVFHVNCLLCKAIHEQMNC [C26V] | -1.03 ± 0.093
KHCKTPDCKGWCFFEDDVNEFTCPVCFHVNCLLCKAIHEQMNC [Y1K] | -0.336 ± 0.095
HHCKTPDCKGWCFFEDDVNEFTCPVCFHVNCLLCKAIHEQMNC [Y1H] | -0.256 ± 0.12
MHCKTPDCKGWCFFEDDVNEFTCPVCFHVNCLLCKAIHEQMNC [Y1M] | 0.028 ± 0.099
YHCKTPDCKGWCFFEDDVNEWTCPVCFHVNCLLCKAIHEQMNC [F21W] | 0.083 ± 0.05
YHCKTPDCKGWCFFEIDVNEFTCPVCFHVNCLLCKAIHEQMNC [D16I] | -0.458 ± 0.17
YHCKTPDCKGWCFFEDDVNEFTCPVCMHVNCLLCKAIHEQMNC [F27M] | -0.159 ± 0.087
YHCKTPDCKGWCFFEDDVNEFTCPVCLHVNCLLCKAIHEQMNC [F27L] | -0.02 ± 0.044
YHCDTPDCKGWCFFEDDVNEFTCPVCFHVNCLLCKAIHEQMNC [K4D] | -0.504 ± 0.11
YHCKTPDCKGWCFFEDDVNEFTCPVCFHVNCLLCKAIHEQGNC [M41G] | 0.202 ± 0.038
YNCKTPDCKGWCFFEDDVNEFTCPVCFHVNCLLCKAIHEQMNC [H2N] | 0.104 ± 0.1
YHCKTPDCKGWCFFEDDVVEFTCPVCFHVNCLLCKAIHEQMNC [N19V] | 0.028 ± 0.052

Variant | abundance fitness
YHCKTPDCKGWCFFEDDVNEFTVPVCFHVNCLLCKAIHEQMNC [C23V] | -0.911 ± 0.096
YHCKTPDCKGWCFFEDDVNEFFCPVCFHVNCLLCKAIHEQMNC [T22F] | -0.261 ± 0.16
YHCKTPDCKGWCFFEDDVNEFTCPVCFHVNCLLCKAIHMQMNC [E39M] | -0.143 ± 0.072
YHCKTPDCKGWCFFEDDVNEFTCPVCFHVNCLLCKAIHLQMNC [E39L] | -0.106 ± 0.057
YHCKTPDCKGWCFFEDDVNEFTCPVCFHVNCLLCKAIHFQMNC [E39F] | -0.213 ± 0.11
YHCKTPDCKGWCFFEDDVNEFTCPCCFHVNCLLCKAIHEQMNC [V25C] | -0.181 ± 0.052
YHCKTPDCKGWCFLEDDVNEFTCPVCFHVNCLLCKAIHEQMNC [F14L] | 0.243 ± 0.08
YHCKTPDCKGWCFFEDDVNEFTCPVCFHDNCLLCKAIHEQMNC [V29D] | -0.414 ± 0.13
YHCKTPDCKGWCFFEDDVNEFTCPVCFHVMCLLCKAIHEQMNC [N30M] | -1.16 ± 0.12
YHCKTPDCKGWCFFEDDVNEFTCPVCFHVDCLLCKAIHEQMNC [N30D] | -0.79 ± 0.15
YHCKTPDCKGWCFFEDDVNEFTCPVCFHVQCLLCKAIHEQMNC [N30Q] | -0.788 ± 0.15
YHCKTPDCKGWCFFEDDVNEFTCPVCFHVNCLLCKAIHEQMNY [C43Y] | -0.424 ± 0.12
YHCKTPDCKEWCFFEDDVNEFTCPVCFHVNCLLCKAIHEQMNC [G10E] | -0.573 ± 0.057
YHCKTPDCKMWCFFEDDVNEFTCPVCFHVNCLLCKAIHEQMNC [G10M] | -0.563 ± 0.11
YHCKTPDCKGPCFFEDDVNEFTCPVCFHVNCLLCKAIHEQMNC [W11P] | -0.529 ± 0.049
YHCKTPDCKGVCFFEDDVNEFTCPVCFHVNCLLCKAIHEQMNC [W11V] | 0.116 ± 0.047
YHCKTPDCKGWCFFEDMVNEFTCPVCFHVNCLLCKAIHEQMNC [D17M] | -0.256 ± 0.11
YHCKTPDCKGWCFFEDWVNEFTCPVCFHVNCLLCKAIHEQMNC [D17W] | -0.133 ± 0.065
YHCKTPHCKGWCFFEDDVNEFTCPVCFHVNCLLCKAIHEQMNC [D7H] | -0.2 ± 0.067
YHCKTPMCKGWCFFEDDVNEFTCPVCFHVNCLLCKAIHEQMNC [D7M] | -0.202 ± 0.062

Variant | abundance fitness
YHCKTPDCKGWCFFEDDVNPFTCPVCFHVNCLLCKAIHEQMNC [E20P] | -0.83 ± 0.098
YHCKTPDCKGWCFFEDDVNGFTCPVCFHVNCLLCKAIHEQMNC [E20G] | -0.457 ± 0.048
YHCKTPDCKGWCFFEDDVNRFTCPVCFHVNCLLCKAIHEQMNC [E20R] | -0.255 ± 0.045
YHCKTPDCKGWCFFEDDVNVFTCPVCFHVNCLLCKAIHEQMNC [E20V] | -0.391 ± 0.052
YHCKTPDCKGWCFFEDDVNEFTCPVCFHVNCLLCKAIPEQMNC [H38P] | -0.611 ± 0.084
YHCKTPDCWGWCFFEDDVNEFTCPVCFHVNCLLCKAIHEQMNC [K9W] | -0.105 ± 0.05
YHCKTPDCTGWCFFEDDVNEFTCPVCFHVNCLLCKAIHEQMNC [K9T] | 0.056 ± 0.049
YHCKTPDCRGWCFFEDDVNEFTCPVCFHVNCLLCKAIHEQMNC [K9R] | 0.036 ± 0.041
YHCKTPDCKGWCFFEDDWNEFTCPVCFHVNCLLCKAIHEQMNC [V18W] | -0.458 ± 0.061
YHCKTPDCKGWCFFEDDVNEFTCPVCFHVNCLLHKAIHEQMNC [C34H] | -0.501 ± 0.059
YHCKTPDCKGWCFFEDDVNEFTCPVCFHVNCLLFKAIHEQMNC [C34F] | -0.654 ± 0.11
YHCKTPDCKGWCFFEDDVNEFTCPVCFHVNCLLCSAIHEQMNC [K35S] | -0.014 ± 0.057
YHCKTPDCKGWCFFEDDVNEFTCPVCFHVNCLLCKAIHEWMNC [Q40W] | -0.542 ± 0.075
YHCKTPDCKGWCFFEDDVNEFTCPVCFHVNCLLCKAIHECMNC [Q40C] | -0.139 ± 0.064
YHCKTPDLKGWCFFEDDVNEFTCPVCFHVNCLLCKAIHEQMNC [C8L] | -0.846 ± 0.14
YHCKTPDFKGWCFFEDDVNEFTCPVCFHVNCLLCKAIHEQMNC [C8F] | -0.554 ± 0.46
YHCKTPDCKGWCFFEDDVNEFTCPVCFVVNCLLCKAIHEQMNC [H28V] | -0.298 ± 0.066
YHCKTPDCKGWCFFEDDVNEFTCPVCFCVNCLLCKAIHEQMNC [H28C] | -0.205 ± 0.06
YHCKTPDCKGWCFFEDDVNEFTCPVCFYVNCLLCKAIHEQMNC [H28Y] | -0.489 ± 0.11
